Data as given in article PMC11910884 (The Innovation, 2025).

Target: LgBiT-Npc1l1 expressed on OVA-Panc-02 cells (UniProt Q6T3U4 21-1333)
Experiment: split reporter

Sequence of LgBiT-Npc1l1 expressed on OVA-Panc-02 cells (Q6T3U4 21-1333): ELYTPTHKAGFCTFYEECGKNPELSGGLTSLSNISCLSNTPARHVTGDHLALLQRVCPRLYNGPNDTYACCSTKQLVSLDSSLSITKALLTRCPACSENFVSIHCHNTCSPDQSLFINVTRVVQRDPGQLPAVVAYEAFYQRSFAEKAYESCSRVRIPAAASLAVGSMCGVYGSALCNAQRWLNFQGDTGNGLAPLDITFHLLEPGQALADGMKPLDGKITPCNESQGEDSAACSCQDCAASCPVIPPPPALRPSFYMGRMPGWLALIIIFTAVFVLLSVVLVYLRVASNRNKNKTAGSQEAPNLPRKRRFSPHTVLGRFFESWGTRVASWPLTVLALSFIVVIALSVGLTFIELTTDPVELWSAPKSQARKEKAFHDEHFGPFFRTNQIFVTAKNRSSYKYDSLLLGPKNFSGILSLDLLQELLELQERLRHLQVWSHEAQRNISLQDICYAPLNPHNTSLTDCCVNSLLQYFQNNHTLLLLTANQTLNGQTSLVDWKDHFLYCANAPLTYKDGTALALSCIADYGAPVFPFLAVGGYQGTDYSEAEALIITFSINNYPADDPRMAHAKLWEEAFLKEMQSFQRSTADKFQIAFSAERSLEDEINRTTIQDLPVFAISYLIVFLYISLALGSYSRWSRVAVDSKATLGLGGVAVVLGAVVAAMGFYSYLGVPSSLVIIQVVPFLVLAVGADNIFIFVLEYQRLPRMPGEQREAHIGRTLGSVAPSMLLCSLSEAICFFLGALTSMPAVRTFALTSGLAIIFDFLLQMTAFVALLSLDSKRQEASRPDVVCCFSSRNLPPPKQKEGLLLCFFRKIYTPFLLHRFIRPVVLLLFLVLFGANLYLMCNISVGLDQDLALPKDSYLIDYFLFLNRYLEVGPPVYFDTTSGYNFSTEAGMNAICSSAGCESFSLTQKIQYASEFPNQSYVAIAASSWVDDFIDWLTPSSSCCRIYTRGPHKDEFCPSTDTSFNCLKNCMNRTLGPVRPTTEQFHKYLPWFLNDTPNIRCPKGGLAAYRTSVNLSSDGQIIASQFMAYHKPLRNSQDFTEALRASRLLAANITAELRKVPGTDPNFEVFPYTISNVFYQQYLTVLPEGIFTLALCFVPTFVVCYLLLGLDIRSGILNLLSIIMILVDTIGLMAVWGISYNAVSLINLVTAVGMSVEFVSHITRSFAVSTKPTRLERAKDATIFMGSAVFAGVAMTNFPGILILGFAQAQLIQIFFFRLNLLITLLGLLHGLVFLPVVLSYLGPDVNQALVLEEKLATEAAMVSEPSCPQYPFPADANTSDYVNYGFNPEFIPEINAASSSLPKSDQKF

B1: SmBiT-Itgal (receptor)
chain: YNLDTRPTQSFLAQAGRHFGYQVLQIEDGVVVGAPGEGDNTGGLYHCRTSSEFCQPVSLHGSNHTSKYLGMTLATDAAKGSLLACDPGLSRTCDQNTYLSGLCYLFPQSLEGPMLQNRPAYQECMKGKVDLVFLFDGSQSLDRKDFEKILEFMKDVMRKLSNTSYQFAAVQFSTDCRTEFTFLDYVKQNKNPDVLLGSVQPMFLLTNTFRAINYVVAHVFKEESGARPDATKVLVIITDGEASDKGNISAAHDITRYIIGIGKHFVSVQKQKTLHIFASEPVEEFVKILDTFEKLKDLFTDLQRRIYAIEGTNRQDLTSFNMELSSSGISADLSKGHAVVGAVGAKDWAGGFLDLREDLQGATFVGQEPLTSDVRGGYLGYTVAWMTSRSSRPLLAAGAPRYQHVGQVLLFQAPEAGGRWNQTQKIEGTQIGSYFGGELCSVDLDQDGEAELLLIGAPLFFGEQRGGRVFTYQRRQSLFEMVSELQGDPGYPLGRFGAAITALTDINGDRLTDVAVGAPLEEQGAVYIFNGKPGGLSPQPSQRIQGAQVFPGIRWFGRSIHGVKDLGGDRLADVVVGAEGRVVVLSSRPVVDVVTELSFSPEEIPVHEVECSYSAREEQKHGVKLKACFRIKPLTPQFQGRLLANLSYTLQLDGHRMRSRGLFPDGSHELSGNTSITPDKSCLDFHFHFPICIQDLISPINVSLNFSLLEEEGTPRDQKVGRAMQPILRPSIHTVTKEIPFEKNCGEDKKCEANLTLSSPARSGPLRLMSSASLAVEWTLSNSGEDAYWVRLDLDFPRGLSFRKVEMLQPHSRMPVSCEELTEGSSLLTKTLKCNVSSPIFKAGQEVSLQVMFNTLLNSSWEDFVELNGTVHCENENSSLQEDNSAATHIPVLYPVNILTKEQENSTLYISFTPKGPKTQQVQHVYQVRIQPSAYDHNMPTLEALVGVPWPHSEDPITYTWSVQTDPLVTCHSEDLKRPSSEAEQPCLPGVQFRCPIVFRREILIQVTGTVELSKEIKASSTLSLCSSLSVSFNSSKHFHLYGSKASEAQVLVKVDLIHEKEMLHVYVLSGIGGLVLLFLIFLALYKVGFFKRNLKEKMEADGGVPNGSPPEDTDPLAVPGEETKDMGCLEPLRESDKD
fold luminescence over the NanoBiT negative controls: 1000 fold
